Test results taken from patent publication US7803572B2, “Protease detection assay” (Atlas Genetics, Ltd., priority 2003, dated 2010).
Read-outs that look alike come from different tables or passages of the source.

Tests used:
porcine pancreas trypsin [1] = molecular target: T1, porcine pancreas trypsin (Sus scrofa, UniProt P00761); assay: Digestion of labelled protein with trypsin, differential pulse voltammetry; type: biochemical
T1 construct: purchased Sigma; host or cells: porcine pancreas
Experimental: (§1) Protease assays were performed as follows unless stated otherwise. […] Samples were incubated at 37° C. for 1 hour.
A digestion of Fc-BSA with trypsin was carried out as described above. […] The positive reaction has a peak position of 435 mV and a peak height of 4.58×10^−7 A; the no trypsin control reaction has a peak position of 432 mV and a peak height of 2.55×10^−8 A.
A digestion of unlabelled BSA with trypsin was carried out in the same manner as for the labelled molecules as described above. The differential pulse voltammogram results are shown in FIG. 10 in which (a) is the trace for a no-trypsin control reaction and (b) is the trace for trypsin BSA reaction.
A digestion of FcU-BSA with trypsin was carried out as described above. […] The positive reaction has a peak position of 97 mV and a peak height of 5.01×10^−7 A; there was no peak in the no-trypsin control reaction. […]
Five digestions of Fc-BSA with trypsin were carried out using the protocol described above. As described in the general protocol, 2 μl of enzyme was used for each 200 μl reaction; for reaction (i) 10 mg/ml enzyme solution was used; reaction (ii): 1 mg/ml; reaction (iii) 0.1 mg/ml; reaction (iv) 0.01 mg/ml and reaction (v) was a no-trypsin control. The differential pulse voltammogram results are shown in FIG. 14 with baseline correction.
Five digestions of Fc-BSA with trypsin were carried out using the protocol described above. In reaction (i) the incubation at 37° was carried out for 60 minutes, in reaction (ii) for 15 minutes, in reaction (iii) for 5 minutes, in reaction (iv) for 2 minutes and reaction (v) was a 0 minutes no-trypsin control. The differential pulse voltammogram results are shown in FIG. 15 with baseline correction.

elastase = assay: Digestion of Fc-BSA with elastase, differential pulse voltammetry; type: biochemical
Experimental: as §1
A digestion of Fc-BSA with elastase was carried out as described above. […] The positive reaction has a peak position of 430 mV and a peak height of 2.57×10^−7 A; the no elastase control reaction has a peak position of 432 mV and a peak height of 2.55×10^−8 A.

[2] = molecular target: T2, porcine stomach mucosa pepsin (Sus scrofa, UniProt P00791); assay: Digestion of Fc-BSA with pepsin, differential pulse voltammetry; type: biochemical
T2 construct: purchased Sigma; host or cells: porcine stomach mucosa
T2 sequence (P00791 60-385): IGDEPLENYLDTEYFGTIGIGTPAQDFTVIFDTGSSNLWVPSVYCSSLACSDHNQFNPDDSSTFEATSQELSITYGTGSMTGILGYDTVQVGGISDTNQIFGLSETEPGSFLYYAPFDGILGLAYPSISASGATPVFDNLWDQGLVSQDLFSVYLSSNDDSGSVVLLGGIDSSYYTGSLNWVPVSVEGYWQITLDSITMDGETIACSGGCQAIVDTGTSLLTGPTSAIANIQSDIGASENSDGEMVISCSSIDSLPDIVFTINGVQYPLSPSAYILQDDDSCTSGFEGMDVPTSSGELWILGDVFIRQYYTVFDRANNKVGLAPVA
Experimental: as §1
A digestion of Fc-BSA with pepsin was carried out as described above. […] The positive reaction has a peak position of 537 mV and a peak height of 8.90×10^−8 A; the no-pepsin control reaction has a peak position of 522 mV and a peak height of 4.19×10^−8 A.

[3] = molecular target: Bacillus thermoproteolyticus rokko thermolysin (Bacillus thermoproteolyticus, UniProt P00800); conditions: for peak: no-thermolysin control reaction; for peak height / peak position: positive reaction
Sequence of Bacillus thermoproteolyticus rokko thermolysin (P00800 233-548): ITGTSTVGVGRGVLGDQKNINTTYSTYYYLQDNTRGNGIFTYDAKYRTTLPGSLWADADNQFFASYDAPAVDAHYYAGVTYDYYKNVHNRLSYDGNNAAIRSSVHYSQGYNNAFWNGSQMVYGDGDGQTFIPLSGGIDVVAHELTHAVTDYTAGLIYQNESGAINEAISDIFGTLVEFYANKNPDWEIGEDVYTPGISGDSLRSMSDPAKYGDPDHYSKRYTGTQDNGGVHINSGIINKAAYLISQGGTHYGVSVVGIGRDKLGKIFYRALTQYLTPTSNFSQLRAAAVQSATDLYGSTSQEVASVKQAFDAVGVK
Experimental: The low volume cell of FIG. 1 was filled with approximately 10 ml sodium chloride solution (100 mM). A 200 μl aliquot of the sample for analysis was placed in the glass sample chamber which was then placed in the low volume cell along with the reference and counter electrodes. The electrodes were connected to the AUTOLAB electrochemical workstation and differential pulse voltammetry carried out using the parameters described in Table 1. Prior to analysis the glassy carbon working electrode was polished (using BAS polishing kit catalogue number MF-2060) followed by conditioning. Electrode conditioning consists of cyclic voltammetry, sweeping between +−1 volt in the appropriate background buffer.
Protease assays were performed as follows unless stated otherwise. Lyophilised enzymes were re-suspended to give a concentration of 10 mgml^−1. Enzymes were resuspended in the following solutions: HCl (1 mM, pH 3.0) (trypsin, α-chymotrypsin, pepsin), NaCl (100 mM) (proteinase K, elastase, papain, carboxypeptidase, thermolysin). 75 μl of Fc-BSA solution (0.3-0.6 mgml^−1) was used per reaction. Each reaction was carried out in a total volume of 200 μl and the reactions were performed in the following buffers (final concentrations are given): 100 mM tris HCl pH7.8 (trypsin, α-chymotrypsin, thermolysin, proteinase K); 100 mM tris HCl pH 8.5 (elastase); 200 mM sodium acetate, 200 mM cysteine, 20 mM EDTA (papain); 10 mM HCl pH 2.0 (pepsin); 25 mM tris HCl pH7.5, 500 mM NaCl (carboxypeptidase). 2 μl enzyme (10 mgml^−1) was added to the […] reaction mixture. Samples were incubated at 37° C. for 1 hour. The reaction products were analysed by differential pulse voltammetry as described in Example 1.
Baseline corrected data was obtained using GPES MANAGER (Ecochemie BV, Utrecht, Netherlands) selecting baseline correction from the edit data menu, selecting moving average, minimum peak width 0.003V.
A digestion of Fc-BSA with thermolysin was carried out as described above with the digestion incubation at 37° C.
A digestion of Fc-BSA with thermolysin was carried out as described above with the digestion incubation at 70° C.

porcine pancreas trypsin [4] = molecular target: T1, porcine pancreas trypsin; assay: Effect of a protease inhibitor on electrochemical marker signal (trypsin digestion of Fc-BSA); type: biochemical; conditions: reaction (i): no inhibitor added
Experimental: as §1
Five digestions of Fc-BSA with trypsin were carried out using the protocol described above. In addition, soybean trypsin inhibitor was added to reaction mixtures […]. Solutions of the soybean trypsin inhibitor were prepared by resuspending inhibitor as supplied in deionised water to a concentration of 10 mg/ml and 1 mg/ml as appropriate. No inhibitor was added to reaction (i); 0.5 μl of 1 mg/ml inhibitor solution was added to reaction (ii); […] of 10 mg/ml inhibitor was added to reaction (iii); 5 μl of 10 mg/ml inhibitor solution was added to reaction (iv) and 5 μl of 10 mg/ml inhibitor solution was added to a no-trypsin control reaction. The differential pulse voltammogram results are shown in FIG. 16 with baseline correction.

[5] = Example 6 reaction (i): 2 μl of 10 mg/ml enzyme solution
[6] = Example 6 reaction (ii): 1 mg/ml enzyme solution
[7] = Example 6 reaction (iii): 0.1 mg/ml enzyme solution
[8] = Example 6 reaction (iv): 0.01 mg/ml enzyme solution
[9] = Example 6 reaction (v): no-trypsin control
[10] = Example 7 reaction (i): incubation at 37° for 60 minutes
[11] = Example 7 reaction (ii): 15 minutes
[12] = Example 7 reaction (iii): 5 minutes
[13] = Example 7 reaction (iv): 2 minutes
[14] = Example 7 reaction (v): 0 minutes no-trypsin control
[15] = positive reaction, 2 μl enzyme (10 mgml^−1), 37° C. for 1 hour
[16] = positive reaction, 10 mM HCl pH 2.0, 37° C. for 1 hour

T1 sequence (P00761 9-231): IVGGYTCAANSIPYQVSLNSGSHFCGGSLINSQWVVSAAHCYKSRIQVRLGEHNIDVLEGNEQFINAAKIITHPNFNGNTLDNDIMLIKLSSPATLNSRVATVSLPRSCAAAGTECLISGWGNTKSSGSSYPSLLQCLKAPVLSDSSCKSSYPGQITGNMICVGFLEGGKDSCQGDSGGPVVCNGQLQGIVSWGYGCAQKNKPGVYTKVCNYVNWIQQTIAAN

Q: For “Fc-BSA: Bovine serum albumin labelled with ferrocene methanoyl groups via N-hydroxysuccinimide ester; estimated 10 to 20 ferrocenes per BSA”, which peak height (porcine pancreas trypsin [1]; [5]) is on record?
A: The peak height was 5.42×10^−7 A.

Q: And the peak position (porcine pancreas trypsin [1]; [5])?
A: The peak position was 430 mV.

Q: And the peak height (porcine pancreas trypsin [1]; [6])?
A: The peak height was 2.29×10^−7 A.

Q: What about the peak position (porcine pancreas trypsin [1]; [6]) of the same substance?
A: The peak position was 428 mV.

Q: And the peak height (porcine pancreas trypsin [1]; [7])?
A: The peak height was 1.04×10^−7 A.

Q: And the peak position (porcine pancreas trypsin [1]; [7])?
A: The peak position was 429 mV.

Q: And the peak height (porcine pancreas trypsin [1]; [8])?
A: Its peak height is 7.53×10^8 A.

Q: And the peak position (porcine pancreas trypsin [1]; [8])?
A: The peak position was 429 mV.

Q: What about the peak height (porcine pancreas trypsin [1]; [9]) of the same substance?
A: Its peak height is 3.17×10^−9 A.

Q: What about the peak position (porcine pancreas trypsin [1]; [9]) of the same substance?
A: The peak position was 448 mV.

Q: What about the peak height (porcine pancreas trypsin [1]; [10]) of the same substance?
A: Its peak height is 2.49×10^−7 A.

Q: And the peak position (porcine pancreas trypsin [1]; [10])?
A: The peak position was 435 mV.

Q: And the peak height (porcine pancreas trypsin [1]; [11])?
A: Its peak height is 1.88×10^−7 A.

Q: And the peak position (porcine pancreas trypsin [1]; [11])?
A: The peak position was 429 mV.

Q: And the peak height (porcine pancreas trypsin [1]; [12])?
A: Its peak height is 1.57×10^−7 A.

Q: And the peak position (porcine pancreas trypsin [1]; [12])?
A: The peak position was 435 mV.

Q: And the peak height (porcine pancreas trypsin [1]; [13])?
A: Its peak height is 1.04×10^−7 A.

Q: What about the peak position (porcine pancreas trypsin [1]; [13]) of the same substance?
A: Its peak position is 428 mV.

Q: And the peak height (porcine pancreas trypsin [1]; [14])?
A: The peak height was 2.11×10^−8 A.

Q: And the peak position (porcine pancreas trypsin [1]; [14])?
A: The peak position was 460 mV.

Q: And the peak height (porcine pancreas trypsin [1]; no-trypsin control reaction)?
A: Its peak height is 2.55×10^−8 A.

Q: What about the peak position (porcine pancreas trypsin [1]; no-trypsin control reaction) of the same substance?
A: The peak position was 432 mV.

Q: What about the peak height (porcine pancreas trypsin [1]; [15]) of the same substance?
A: Its peak height is 4.58×10^−7 A.

Q: And the peak position (porcine pancreas trypsin [1]; [15])?
A: The peak position was 435 mV.

Q: And the “factor by which current observed at 435 mV increases upon digestion” value (porcine pancreas trypsin [1]; trypsin digestion vs no-trypsin control, FIG. 3)?
A: Its value is 18.

Q: What about the peak height (elastase; no elastase control reaction) of the same substance?
A: Its peak height is 2.55×10^−8 A.

Q: And the peak height (elastase; positive reaction, tris HCl pH 8.5, 37° C. for 1 hour)?
A: Its peak height is 2.57×10^−7 A.

Q: What about the peak height ([2]; no-pepsin control reaction) of the same substance?
A: The peak height was 4.19×10^−8 A.

Q: And the peak position ([2]; no-pepsin control reaction)?
A: The peak position was 522 mV.

Q: And the peak height [2, 16]?
A: The peak height was 8.90×10^−8 A.

Q: And the peak position [2, 16]?
A: Its peak position is 537 mV.

Q: What about the peak ([3]; 37° C.) of the same substance?
A: The peak was “no peak was found”.

Q: What about the peak ([3]; 70° C.) of the same substance?
A: Its peak is “no peak was found”.

Q: And the peak height ([3]; digestion incubation at 37° C.)?
A: Its peak height is 1.62×10^−8 A.

Q: What about the peak position ([3]; digestion incubation at 37° C.) of the same substance?
A: The peak position was 429 mV.

Q: And the peak height ([3]; digestion incubation at 70° C.)?
A: The peak height was 2.0×10^−8 A.

Q: What about the peak position ([3]; digestion incubation at 70° C.) of the same substance?
A: Its peak position is 455 mV.

Q: What about the peak height (porcine pancreas trypsin [4]) of the same substance?
A: The peak height was 2.56×10^−7 A.

Q: And the peak position (porcine pancreas trypsin [4])?
A: The peak position was 439 mV.
